Results on one molecule are retold here after patent US20200332015A1 (NAMAB THERAPEUTICS, published 2020).

In experiment [1] the target is T1, human Fc-tagged CD40 (AcroBiosystems, cat. CDO-H5253) (human, UniProt P25942 21-193).
T1 construct: also called human CD40
The experiment in a line: SPR T200, Fc-tagged CD40 captured, scFv analyte. As to the method:
(§1) In addition to cross-reactivity to cynomolgus monkey CD137, selectivity of binding of the anti-human CD137 scFvs to human CD137 and not to other members of the TNFR superfamily, such as CD40 and OX40, is desired. Therefore, binding of selected scFvs to human CD40 and OX40 was tested. Binding of scFvs to human Fc-tagged CD40 (AcroBiosystems, cat. CDO-H5253) and human Fc-tagged OX40 (Acro-Biosystems, cat. OXO-H5255) was determined by SPR analysis on a T200 device (Biacore, GE Healthcare). In this experiment, Fc-tagged CD40 and OX40 were captured using the Human Antibody Capture kit from GE healthcare (cat. BR-1008-39). After each analyte injection cycle, the anti-human Fc-specific IgG was regenerated and new antigen was captured. The scFvs were injected as analyte using a high concentration of 180 nM of the analyte diluted in running buffer. Association and dissociation time were set to 300 s and 720 s, respectively. Obtained sensorgrams were fitted using the 1:1 binding model.

Experiment [2] addresses T2, cynomolgus monkey Fc-tagged CD137 (R&D Systems, cat. 9324-4B-100) (cynomolgus monkey, UniProt A9YYE7 24-186).
T2 construct: also called cynomolgus CD137-Fc chimeric protein
The experiment is described as follows: SPR T200, Fc-tagged antigen captured, scFv analyte. As for the experimental part: (§2) Affinity of the humanized scFvs to human CD137 was determined by SPR analysis on a T200 device (Biacore, GE Healthcare). […] After each analyte injection cycle, the anti-human Fc-specific IgG was regenerated and new antigen was captured. The scFvs were injected as analyte using a dose response multi-cycle kinetic assay over the captured CD137 with concentrations of the analyte ranging from 0.19 to 45 nM (three-fold dilutions steps) diluted in running buffer. Association and dissociation time were set to 300 s and 720 s, respectively. Obtained sensorgrams were fitted using the 1:1 binding model.
Cross-reactivity to cynomolgus CD137 was measured with cynomolgus monkey Fc-tagged CD137 (R&D Systems, cat. 9324-4B-100) in a similar assay as used to measure binding to human CD137.

Experiment [3] has as its target T3, Fc tagged human CD137 (R&D Systems, cat. 838-4B-100) (human, UniProt Q07011 24-186).
T3 construct: also called CD137 Fc chimera; human CD137-Fc chimeric protein
The experiment in a line: SPR T200, Fc-tagged antigen captured, scFv analyte. As to the method: as §2

For experiment [4], the target named is T4, human Fc-tagged OX40 (Acro-Biosystems, cat. OXO-H5255) (human, UniProt P43489 29-216, limits assumed).
T4 construct: also called human OX40
T4 sequence (looked up): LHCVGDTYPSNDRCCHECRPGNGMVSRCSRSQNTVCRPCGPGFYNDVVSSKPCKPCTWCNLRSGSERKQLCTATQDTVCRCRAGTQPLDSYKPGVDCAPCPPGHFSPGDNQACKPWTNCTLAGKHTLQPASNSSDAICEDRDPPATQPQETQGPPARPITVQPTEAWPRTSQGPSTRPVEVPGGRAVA
The experiment in a line: SPR T200, Fc-tagged OX40 captured, scFv analyte. As to the method: as §1

In experiment [5] the target is T5, human CD137 expressed on Jurkat cells (human, UniProt Q07011 24-255).
T5 construct: Also used here for CD137 on T cells of human PBMC in the IL-2 assays; also called Jurkat CD137 cells (clone C6, 1); membranous CD137
The experiment in a line: flow cytometry on CD137 expressing Jurkat cells. As to the method:
(§3) Binding potency affinity to human CD137 expressing cells was also determined for selected scFvs. 50,000 CD137 expressing Jurkat cells (or as reference cell line Jurkat NFAT) were distributed to round bottom non-tissue culture treated 96 well plates. Cells were washed twice with 100 μl PBS by centrifugation at 400×g for 5 min. […] After 1 h incubation at 4° C. on a nutating mixer, cells were washed 3 times with 100 μl staining buffer and centrifugation steps of 5 min at 400×g. […] Plates were incubated 1 h at 4° C. on a nutating mixer, then washed 3 times with 100 μl of staining buffer and resuspended in a final volume of 50 μl of staining buffer. Finally, APC signal of 20,000 events per well was analyzed by flow cytometry using a Novocyte flow cytometer system (ACEA Bioscience).

The target of experiment [6] is T6, mouse Fc-tagged mouse CD137 (R&D Systems, cat. 937-4B-050) (mouse, UniProt P20334 24-187).
T6 construct: also called mouse CD137-Fc chimeric protein
T6 sequence (looked up): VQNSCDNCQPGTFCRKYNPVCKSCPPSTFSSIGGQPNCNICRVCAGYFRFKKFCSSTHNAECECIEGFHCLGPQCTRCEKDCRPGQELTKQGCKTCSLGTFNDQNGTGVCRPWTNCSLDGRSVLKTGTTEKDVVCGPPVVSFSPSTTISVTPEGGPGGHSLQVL
The experiment is described as follows: SPR T200, Fc-tagged antigen captured, scFv analyte.

In experiment [7] the target is T5, human CD137 expressed on Jurkat cells. The experiment is described as follows: flow cytometry on CD137 expressing Jurkat cells, protein L-APC. As for the experimental part:
as §3
In general terms: In flow cytometry, cells or beads pass a laser one at a time.

T2 sequence (A9YYE7 entry or part of it): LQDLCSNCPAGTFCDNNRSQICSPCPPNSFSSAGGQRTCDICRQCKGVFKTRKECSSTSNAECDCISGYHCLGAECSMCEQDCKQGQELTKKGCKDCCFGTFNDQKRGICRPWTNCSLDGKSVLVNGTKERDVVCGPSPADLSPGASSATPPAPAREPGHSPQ
T1 sequence (P25942 21-193 limits assumed): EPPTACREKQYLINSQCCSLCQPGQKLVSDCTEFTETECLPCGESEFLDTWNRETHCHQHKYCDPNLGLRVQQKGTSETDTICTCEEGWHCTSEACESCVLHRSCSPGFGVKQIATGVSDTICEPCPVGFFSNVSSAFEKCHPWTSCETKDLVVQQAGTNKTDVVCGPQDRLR

B1: PRO1352 (38-02-A04 sc13, CDR graft with interdomain disulfide, VH3, scFv) (scFv)
scFv: DIQMTQSPSSLSASVGDRVTITCQASQSINNVLAWYQQKPGKAPKLLIYRASTLASGVPSRFSGSGSGTDFTLTISSLQPEDFATYYCQSSYGNYGDFGCGTKVTVLGGGGGSGGGGSGGGGSGGGGSEVQLVESGGGLVQPGGSLRLSCAASGFSFSNSYWICWVRQAPGKCLEWIGCTFVGSSDSTYYANWAKGRFTISRDNSKNTVYLQMNSLRAEDTAVYYCARHPSDAVYGYANNLWGQGTLVTVSS
notes: VL-linker-VH; carries VH G51C and VL T141C (AHo numbering); also called the scFv based on 38-02-A04 clone
By Kd is commonly meant the concentration at which binding is half-saturated. Broadly, the koff is the rate constant with which the complex falls apart. The kon is the second-order rate constant of association. Broadly, the EC50 is the concentration at which the effect is half-maximal. With B1, the binding result in experiment [1] is “no binding (tested: 180 nM)”. In experiment [2], this molecule had a dissociation constant (Kd) of 1.47 nM, a koff of 0.00102 s⁻¹ and an association rate constant (kon) of 695000 M⁻¹ s⁻¹. In addition, in experiment [3], the affinity, expressed as Kd, was 1.47 nM; the koff was 0.00103 s⁻¹; the kon turned out to be 701000 M⁻¹ s⁻¹. The binding result in experiment [4] is listed as “no binding (tested: 180 nM)”. In addition, in experiment [5], the “Maximum binding (relative to urelumab)” value amounted to 10% and the “rel. EC50 (EC50, urelumab/EC50, scFv)” value turned out to be 0.057 ratio. Moreover, in experiment [6], the binding result is listed as “no binding”. Moreover, the midpoint of the response in experiment [7], the EC50, lay at 1.1 µg/mL.
